Experimental data published in patent publication US20190077858A1 (KM BIOLOGICS, published 2019).
Changes are numbered by the printed parent chain.

How the values were obtained:
[1] = target: human cell-derived natural IL-18 (human) (UniProt Q14116); test: cell-based or functional assay
[2] = target: chymase cleavage-type IL-18 (UniProt Q14116); test: cell-based or functional assay
[3] = target: T1, human IL-18 (MBL Medical & Biological Laboratories, Co., Ltd.) (human, UniProt Q14116 37-193, biotinylated (Biotin-PEAC5-maleimide or Biotin-AC5 Sulfo-OSu) in the streptavidin plate ELISAs and the panning; not labelled in the receptor binding and KG-1 assays); test: ELISA: biotinylated human IL-18 on streptavidin plate, anti-mouse IgG/HRP
T1 construct: Bought protein; also called human interleukin-18; biotinylated human IL-18
T1 sequence (looked up): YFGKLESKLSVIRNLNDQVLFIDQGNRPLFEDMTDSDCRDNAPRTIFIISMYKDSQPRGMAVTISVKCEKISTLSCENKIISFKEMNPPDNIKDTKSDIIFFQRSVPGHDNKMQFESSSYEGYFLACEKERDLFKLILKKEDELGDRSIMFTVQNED
Protocol: The biotinylated human IL-18 was diluted to 1 μg/mL with PBS (Sigma-Aldrich Corp.), added at 100 μL/well to Streptavidin plates (Nunc), and incubated at room temperature for 1 hour to immobilize the human IL-18. The plates were washed with PB ST, and human IL-18BPa-hFc (R&D Systems, Inc.) diluted to 10 μg/mL with 1% BSA-PBS was added at 100 μL/well to the plates and incubated at 37° C. for 1 hour to form a complex of IL-18 and IL-18BP. The plates were washed with PBST, and 4A6D scFv-mFc was added at 100 μL/well to the plates and incubated at 37° C. After 1 hour, the plates were washed with PBST, and a detection antibody anti-mouse IgG/HRP (Invitrogen Corp.) was added at 100 μL/well to the plates and incubated at 37° C. After 1 hour, the plates were washed with PBST, and TMB (Sigma-Aldrich Corp.) was added at 100 μL/well to the plates to develop color. After 30 minutes, the reaction was terminated with 1 M sulfuric acid, and the color values (O.D. 450 nm/650 nm) were measured using a microplate reader (Molecular Devices, Inc.).

[4] = target: T1, human IL-18 (MBL Medical & Biological …); test: panning of an scFv phage library on biotinylated human IL-18 on streptavidin magnetic beads
[5] = target: T1, human IL-18 (MBL Medical & Biological …); test: cell-based or functional assay
[6] = target: T2, rat IL-18 (Acris Antibodies GmbH) (rat, UniProt P97636 37-194, limits assumed, biotinylated (Biotin-PEAC5-maleimide or Biotin-AC5 Sulfo-OSu)); test: ELISA on biotinylated cytokine on streptavidin plates
T2 construct: also called biotinylated rat IL-18
T2 sequence (looked up): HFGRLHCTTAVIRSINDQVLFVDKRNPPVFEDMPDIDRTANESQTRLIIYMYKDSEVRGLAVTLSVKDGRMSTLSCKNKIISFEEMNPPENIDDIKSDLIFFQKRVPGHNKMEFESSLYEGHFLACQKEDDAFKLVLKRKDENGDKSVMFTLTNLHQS

[7] = target: T3, human IL-33 (MBL Medical & Biological Laboratories, Co., Ltd.) (human, UniProt O95760 112-270, limits assumed, biotinylated (Biotin-PEAC5-maleimide or Biotin-AC5 Sulfo-OSu)); test: as above
T3 construct: also called biotinylated human IL-33
T3 sequence (looked up): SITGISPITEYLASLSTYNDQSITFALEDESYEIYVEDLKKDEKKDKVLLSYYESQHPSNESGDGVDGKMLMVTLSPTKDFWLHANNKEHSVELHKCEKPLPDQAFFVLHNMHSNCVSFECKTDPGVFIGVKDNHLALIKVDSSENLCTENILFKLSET

[8] = target: T4, mouse IL-18 (MBL Medical & Biological Laboratories, Co., Ltd.) (mouse, UniProt P70380 36-192, biotinylated (Biotin-PEAC5-maleimide or Biotin-AC5 Sulfo-OSu)); test: as above
T4 construct: also called biotinylated mouse IL-18
T4 sequence (looked up): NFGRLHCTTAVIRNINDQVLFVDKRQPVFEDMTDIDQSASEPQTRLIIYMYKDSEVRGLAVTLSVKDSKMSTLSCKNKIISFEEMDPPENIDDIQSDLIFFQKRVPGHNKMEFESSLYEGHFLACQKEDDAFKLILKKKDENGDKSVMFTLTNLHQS

[9] = target: T5, human IL-1β (Funakoshi Corp.) (human, UniProt P01584 117-269, biotinylated (Biotin-PEAC5-maleimide or Biotin-AC5 Sulfo-OSu)); test: as above
T5 construct: also called biotinylated human IL-1β

[10] = target: T1, human IL-18 (MBL Medical & Biological …); test: ELISA, biotinylated human IL-18 on streptavidin plate, HRP detection antibody, O.D. 450nm/650nm
Protocol: The binding activity of the obtained scFv phages, scFv, and IgG prepared by a standard method (conventional method) was evaluated by ELISA. The biotinylated human IL-18 or the biotinylated mouse IL-18 was diluted to 1 μg/mL with PBS (Sigma-Aldrich Corp.), added at 100 μL/well to Streptavidin plates (Nunc), and incubated at room temperature for 2 hours to immobilize the IL-18. After the immobilization, the plates were washed with PBST, and each obtained scFv phage, scFv, or IgG was added at 100 μL/well to the plates and incubated at 37° C. After 1 hour, the plates were washed with PBST, and a detection antibody anti-M13/HRP (GE Healthcare Japan Corp.), anti-His tag/HRP (Bethyl Laboratories, Inc.), anti-V5 tag/HRP (Bethyl Laboratories, Inc.), anti-mouse IgG/HRP (Invitrogen Corp.), or anti-hFc/HRP (Cosmo Bio Co., Ltd., The binding site) was added at 100 μL/well to the plates and incubated at 37° C. After 1 hour, the plates were washed with PBST, and TMB (Sigma-Aldrich Corp.) was added at 100 μL/well to the plates to develop color. After 30 minutes, the reaction was terminated with 2 N sulfuric acid, and the color values (O.D. 450 nm/650 nm) were measured using a microplate reader (Molecular Devices, Inc.).

Negative control antibody was tested, and the Amount of IFN-γ produced [1] was 134 pg/mL and the Amount of IFN-γ produced [2] was 109 pg/mL.

B1: 4A6D scFv-mFc (Fc fusion)
scFv: EVQLVESGGGLVQPGGSMRLSCTASGFTFDEYAMSWVRQAPGKGLEWVSGISTGGGGTYYADSVEGRFTISRDNSKNTLYLQMNSLRAEDTAVYYCAKPWLSGSRSGDFWGQGTLVTVSSASTGGGGSGGGGSGGGGSQSALTQPASVSGSPGQSITISCTGTSSDVGGYNYVSWYQQHPGKAPKLLIYEVSHRPSGVSDRFSGSKSGNTASLTISGLQAEDEADYYCSSFTSSSSLYVFGTGTKLTVL
notes: not shown: mouse Fc (mFc) and any junction to it
B1 was tested, and the “EC50 (read off the curve)” value [3] was about 0.008 µg/mL.

B2: 4A6D scFv phage (scFv)
scFv: B1 scFv
modifications: displayed on phage
notes: the phage coat fusion is not described; not shown: phage coat protein fusion (display partner) and any tags; not described
B2: binds [4].

B3: 4A6S scFv phage (scFv)
scFv: B1 scFv with D30S
modifications: displayed on phage
notes: as for B2
B3: binds [4].

B4: IgG molecule-type 4A6S (antibody, V domains shown)
VH: EVQLVESGGGLVQPGGSMRLSCTASGFTFSEYAMSWVRQAPGKGLEWVSGISTGGGGTYYADSVEGRFTISRDNSKNTLYLQMNSLRAEDTAVYYCAKPWLSGSRSGDFWGQGTLVTVSS
VL: QSALTQPASVSGSPGQSITISCTGTSSDVGGYNYVSWYQQHPGKAPKLLIYEVSHRPSGVSDRFSGSKSGNTASLTISGLQAEDEADYYCSSFTSSSSLYVFGTGTKLTVL
notes: IgG prepared by a standard method; also called human anti-human IL-18 antibody 4A6S
For B4, the “Neutralizing ability (IC50, nM)” value [5] was 0.013 nM, the binding result [6] was “no binding” and the binding result [7] was “no binding”. For the same molecule, the binding result [8] was “no binding”, the binding result [9] was “no binding” and the “EC50 (read off the curve)” value [10] was about 0.02 µg/mL.
